Test results reported in article doi:10.1101/2022.12.15.520641.

Molecular target: 6His-σS (His-tagged RpoS) (E. coli) (UniProt P13445)
Test: pull-down

Sequence of UniProt P13445 (P13445 whole entry): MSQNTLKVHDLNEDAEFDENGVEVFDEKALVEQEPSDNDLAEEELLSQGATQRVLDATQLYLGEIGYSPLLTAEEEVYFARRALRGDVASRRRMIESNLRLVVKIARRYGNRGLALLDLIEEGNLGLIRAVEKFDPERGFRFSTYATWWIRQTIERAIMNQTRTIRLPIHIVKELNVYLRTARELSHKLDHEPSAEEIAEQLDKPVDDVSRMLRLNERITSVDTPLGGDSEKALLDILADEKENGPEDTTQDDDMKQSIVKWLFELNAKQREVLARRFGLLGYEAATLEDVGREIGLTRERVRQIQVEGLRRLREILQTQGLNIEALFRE

## RssB bound to Mg2+•beryllofluoride (phosphorylated-like RssB) (from UniProt P0AEV1 1-337) (natural protein)
  fold increase in pull-down efficiency over RssB without Mg2+•beryllofluoride: 5 fold
